Where no end group is shown, it is not given here. [ ]: non-standard residue; d: D form. pY = N[C@@H](Cc1ccc(OP(=O)(O)O)cc1)C(=O)O
Biological target: T1, ZAP-70 tandem SH2 domain R192A (1-256)
T1 construct: numbers count on: PDB 2OQ1 (holo-tSH2 structure); also called tSH2 R192A; C-SH2 domain mutant; source: E. coli BL21(DE3), purified (Ni-NTA, Q column, gel filtration)
Assay: ITC; Malvern PEAQ-ITC, 20 °C; C-SH2 mutant tSH2 (R192A, printed R190A in the methods) in 20 mM Hepes pH 8.2, 150 mM NaCl, 5 mM β-mercaptoethanol; titrated with 300 μM peptide; one-site binding model; constant printed under the column Kd2
Details: both partners purified

Kd: 12 ± 0.9 µM
Binder: DGL[pY]QGLSTATKDT[pY]DALH [doubly-phosphorylated ITAM-ζ3 peptide]

Source: paper PMC9486129, “An evolutionary divergent thermodynamic brake in ZAP-70 fine-tunes the kinetic proofreading in T cells” (The Journal of Biological Chemistry, 2022)
